Assay results reported in patent US9994830B2, “Methods for modulating cyclic nucleotide-mediated signaling in cardiac myocytes and compositions” (The United States of America as Represented by the …, priority 2014, dated 2018).

Target: T1, rSERCA2 (Homo sapiens, UniProt P16615)
T1 construct: purchased Abnova
Assay: Co-immunoprecipitation of Flag-tagged rhPDE3A variants and rSERCA2 after incubation with or without rPKAc
Format: binding
Conditions: for PKA-stimulated (phosphorylation-dependent) interaction with SERCA2: serine-to-alanine mutants of rhPDE3A1, 50 units rPKAc, co-IP
Description: FIG. 11 a-d. rPKAc phosphorylates rhPDE3A and increases its interactions rSERCA2. A. Schemes representing PDE3A1 [NHR1: trans-membrane domain (obligatory membrane insertion domain); NHR2: membrane association domain; CCR: conserved C-terminal catalytic region; P1-4: predicted PKA phosphorylation sites; rhPDE3A and truncated mutants (PDE3A2, PDE3A-A510, PDE3A-RD), and rSERCA2 (1042 amino acids, 3-77 cation transporter N-terminal; 93-341, E1-E2 ATPase; 345-724, haloacid dehydrogenase like hydrolase; 819-991, cation transporter ATPase C-terminus). B. Putative PKA phosphorylation sites of PDE3A designated with asterisks. C-D. Purified rSERCA2 (150 ng) (Abnova) and 50 units of Flag-tagged rhPDE3A1 truncated mutants [rhPDE3A2, rhPDE3A-A510, and similarly expressed rhPDE3A-RD (aa 146-484)](FIG. 11D) or mutants lacking the PKA putative phosphorylation site mutants of rhPDE3A1 [Ser292/293A (M1), S312A (M2), S428A (M3), S438A (M4), S292A/293A/312A/438A (M5)](FIG. 11C) were incubated with or without 50 units of rPKAc at 30° C. for 30 min and 5 mM MgCl2 in phosphorylation buffer. Proteins were immunoprecipitated with anti-Flag antibodies and immunoblotted with anti-SERCA2 (upper panel), or anti-Flag (middle panel). Lower panel: input control (SERCA2). Shown are representative blots from three independent experiments. (RD: regulatory domain; AA: amino acid).
Flag-tagged rhPDE3A1 and its phosphorylation site mutants [rhPDE3A1-S292A/293A (M1), rhPDE3A1-S312A (M2), rhPDE3A1-S428A (M3), rhPDE3A1-S438A (M4), rhPDE3A1-S292A/293A/312A/438A (M5) open reading frame [accession #NP_000912] was synthesized by Genscript, Inc (Piscataway, N.J.), subcloned into pAcSG2 baculoviral expression vector. Flag-tagged rhPDE3A variants and phosphorylation site mutants were expressed in SF21 cells [(10-20)×106 SF21 cells/75-cm2 flask] as described (19,20). SF21 cells were harvested, sedimented (10 min, 1000×g, 4° C.), washed twice with ice-cold PBS, resuspended, homogenized (in a Dounce homogenizer) in buffer B and sonicated […]. A comparison of the translated sequences of human AKAP18γ (AC NP_057461 and AK300587; 348 aa residues) and rat AKAP18δ (3) (AC QJP77; 352 aa residues) indicate that eight of the first twelve aa residues of human AKAP18γ and rat AKAP18δ are identical, and that the proteins are homologous (˜74% aa identity). SF21 cell extracts, which contained his-tagged-rAKAP18δ, were prepared as described above. Flag-tagged rhPDE3A1 (usually 50 arbitrary (u) units) was incubated (30 min, 30° C.) with rAKAP18δ (200 μl, containing 50 ng of recombinant protein), with or without different concentrations of rPKAc (final volume, 300 μl) in buffer B containing 2 mM DTT and 200 μM ATP. Reactions were stopped by dilution of reaction mixtures to 1.0 ml with buffer B containing 1 mg/ml SF21 cell lysates, and cleared as described above (cf ‘Immunoprecipitation and immunoblotting’ subsection). His-tagged rAKAP18δ was immunoprecipitated with anti-his Mab Mag-beads (Genscript). Anti-his Mab Mag beads-bound immunoprecipitates were washed, collected, and anti-his Mab Mag-beads-bound proteins were eluted by boiling in Laemmli's SDS buffer (100 μl) and samples (15 μl) of immunoprecipitated proteins as well as of reaction mixtures (‘input proteins’) were immunoblotted with indicated antibodies as described above.

T1 sequence (P16615 whole entry): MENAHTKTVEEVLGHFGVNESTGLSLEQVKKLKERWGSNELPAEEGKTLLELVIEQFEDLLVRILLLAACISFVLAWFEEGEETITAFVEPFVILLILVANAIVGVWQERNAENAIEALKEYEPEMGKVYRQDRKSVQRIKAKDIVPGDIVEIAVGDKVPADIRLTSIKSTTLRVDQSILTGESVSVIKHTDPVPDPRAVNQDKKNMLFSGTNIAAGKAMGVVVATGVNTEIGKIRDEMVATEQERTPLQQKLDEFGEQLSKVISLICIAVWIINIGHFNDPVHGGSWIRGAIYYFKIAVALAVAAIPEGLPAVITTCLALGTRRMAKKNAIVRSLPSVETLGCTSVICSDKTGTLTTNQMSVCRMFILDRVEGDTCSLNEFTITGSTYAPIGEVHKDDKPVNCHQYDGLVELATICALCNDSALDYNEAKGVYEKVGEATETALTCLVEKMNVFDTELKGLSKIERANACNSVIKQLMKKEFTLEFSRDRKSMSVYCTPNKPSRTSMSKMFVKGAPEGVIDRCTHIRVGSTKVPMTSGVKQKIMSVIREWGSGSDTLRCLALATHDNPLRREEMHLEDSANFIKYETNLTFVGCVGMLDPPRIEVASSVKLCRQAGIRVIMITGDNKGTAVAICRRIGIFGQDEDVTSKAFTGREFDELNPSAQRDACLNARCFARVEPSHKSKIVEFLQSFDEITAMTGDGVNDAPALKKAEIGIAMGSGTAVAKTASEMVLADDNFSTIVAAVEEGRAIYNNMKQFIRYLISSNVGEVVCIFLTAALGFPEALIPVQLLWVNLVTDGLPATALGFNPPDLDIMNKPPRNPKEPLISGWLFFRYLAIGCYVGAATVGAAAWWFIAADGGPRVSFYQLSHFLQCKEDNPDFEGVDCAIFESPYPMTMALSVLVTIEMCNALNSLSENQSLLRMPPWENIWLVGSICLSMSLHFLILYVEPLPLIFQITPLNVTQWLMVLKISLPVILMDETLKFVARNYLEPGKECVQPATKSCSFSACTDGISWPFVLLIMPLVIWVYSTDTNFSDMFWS

Row | Molecule | co-immunoprecipitation of rSERCA2 with construct (truncated rhPDE3A constructs) | PKA-stimulated (phosphorylation-dependent) interaction with SERCA2
1 | M1: Flag-tagged rhPDE3A1 phosphorylation site mutant S292A/293A (protein, UniProt Q14432 1-1141, looked up, variant S292A S293A, Flag tag, Flag-tagged rhPDE3A1 phosphorylation site mutant S292A/293A) cGMP-inhibited 3',5'-cyclic …: MAVPGDAARVRDKPVHSGVSQAPTAGRDCHHRADPASPRDSGCRGCWGDLVLQPLRSSRKLSSALCAGSLSFLLALLVRLVRGEVGCDLEQCKEAAAAEEEEAAPGAEGGVFPGPRGGAPGGGARLSPWLQPSALLFSLLCAFFWMGLYLLRAGVRLPLAVALLAACCGGEALVQIGLGVGEDHLLSLPAAGVVLSCLAAATWLVLRLRLGVLMIALTSAVRTVSLISLERFKVAWRPYLAYLAGVLGILLARYVEQILPQSAEAAPREHLGSQLIAGTKEDIPVFKRRRRAASVVSAEMSGCSSKSHRRTSLPCIPREQLMGHSEWDHKRGPRGSQSSGTSITVDIAVMGEAHGLITDLLADPSLPPNVCTSLRAVSNLLSTQLTFQAIHKPRVNPVTSLSENYTCSDSEESSEKDKLAIPKRLRRSLPPGLLRRVSSTWTTTTSATGLPTLEPAPVRRDRSTSIKLQEAPSSSPDSWNNPVMMTLTKSRSFTSSYAISAANHVKAKKQSRPGALAKISPLSSPCSSPLQGTPASSLVSKISAVQFPESADTTAKQSLGSHRALTYTQSAPDLSPQILTPPVICSSCGRPYSQGNPADEPLERSGVATRTPSRTDDTAQVTSDYETNNNSDSSDIVQNEDETECLREPLRKASACSTYAPETMMFLDKPILAPEPLVMDNLDSIMEQLNTWNFPIFDLVENIGRKCGRILSQVSYRLFEDMGLFEAFKIPIREFMNYFHALEIGYRDIPYHNRIHATDVLHAVWYLTTQPIPGLSTVINDHGSTSDSDSDSGFTHGHMGYVFSKTYNVTDDKYGCLSGNIPALELMALYVAAAMHDYDHPGRTNAFLVATSAPQAVLYNDRSVLENHHAAAAWNLFMSRPEYNFLINLDHVEFKHFRFLVIEAILATDLKKHFDFVAKFNGKVNDDVGIDWTNENDRLLVCQMCIKLADINGPAKCKELHLQWTDGIVNEFYEQGDEEASLGLPISPFMDRSAPQLANLQESFISHIVGPLCNSYDSAGLMPGKWVEDSDESGDTDDPEEEEEEAPAPNEEETCENNESPKKKTFKRRKIYCQITQHLLQNHKMWKKVIEEEQRLAGIENQSLDQTPQSHSSEQIQAIKEEEEEKGKPRGEEIPTQKPDQ | – | markedly diminished
2 | M2: Flag-tagged rhPDE3A1 phosphorylation site mutant S312A (protein, UniProt Q14432 1-1141, looked up, variant S312A, Flag tag, Flag-tagged rhPDE3A1 phosphorylation site mutant S312A) cGMP-inhibited 3',5'-cyclic …: MAVPGDAARVRDKPVHSGVSQAPTAGRDCHHRADPASPRDSGCRGCWGDLVLQPLRSSRKLSSALCAGSLSFLLALLVRLVRGEVGCDLEQCKEAAAAEEEEAAPGAEGGVFPGPRGGAPGGGARLSPWLQPSALLFSLLCAFFWMGLYLLRAGVRLPLAVALLAACCGGEALVQIGLGVGEDHLLSLPAAGVVLSCLAAATWLVLRLRLGVLMIALTSAVRTVSLISLERFKVAWRPYLAYLAGVLGILLARYVEQILPQSAEAAPREHLGSQLIAGTKEDIPVFKRRRRSSSVVSAEMSGCSSKSHRRTALPCIPREQLMGHSEWDHKRGPRGSQSSGTSITVDIAVMGEAHGLITDLLADPSLPPNVCTSLRAVSNLLSTQLTFQAIHKPRVNPVTSLSENYTCSDSEESSEKDKLAIPKRLRRSLPPGLLRRVSSTWTTTTSATGLPTLEPAPVRRDRSTSIKLQEAPSSSPDSWNNPVMMTLTKSRSFTSSYAISAANHVKAKKQSRPGALAKISPLSSPCSSPLQGTPASSLVSKISAVQFPESADTTAKQSLGSHRALTYTQSAPDLSPQILTPPVICSSCGRPYSQGNPADEPLERSGVATRTPSRTDDTAQVTSDYETNNNSDSSDIVQNEDETECLREPLRKASACSTYAPETMMFLDKPILAPEPLVMDNLDSIMEQLNTWNFPIFDLVENIGRKCGRILSQVSYRLFEDMGLFEAFKIPIREFMNYFHALEIGYRDIPYHNRIHATDVLHAVWYLTTQPIPGLSTVINDHGSTSDSDSDSGFTHGHMGYVFSKTYNVTDDKYGCLSGNIPALELMALYVAAAMHDYDHPGRTNAFLVATSAPQAVLYNDRSVLENHHAAAAWNLFMSRPEYNFLINLDHVEFKHFRFLVIEAILATDLKKHFDFVAKFNGKVNDDVGIDWTNENDRLLVCQMCIKLADINGPAKCKELHLQWTDGIVNEFYEQGDEEASLGLPISPFMDRSAPQLANLQESFISHIVGPLCNSYDSAGLMPGKWVEDSDESGDTDDPEEEEEEAPAPNEEETCENNESPKKKTFKRRKIYCQITQHLLQNHKMWKKVIEEEQRLAGIENQSLDQTPQSHSSEQIQAIKEEEEEKGKPRGEEIPTQKPDQ | – | slightly decreased

Results, then the molecule that gave them:

Row | co-immunoprecipitation of rSERCA2 with construct (truncated rhPDE3A constructs) | PKA-stimulated (phosphorylation-dependent) interaction with SERCA2 | Molecule
3 | co-immunoprecipitated | – | rPDE3A-RD: construct containing only the N-terminal portion of PDE3A1 (aa 146-484), regulatory domain (protein) MGLYLLRAGVRLPLAVALLAACCGGEALVQIGLGVGEDHLLSLPAAGVVLSCLAAATWLVLRLRLGVLMIALTSAVRTVSLISLERFKVAWRPYLAYLAGVLGILLARYVEQILPQSAEAAPREHLGSQLIAGTKEDIPVFKRRRRSSSVVSAEMSGCSSKSHRRTSLPCIPREQLMGHSEWDHKRGPRGSQSSGTSITVDIAVMGEAHGLITDLLADPSLPPNVCTSLRAVSNLLSTQLTFQAIHKPRVNPVTSLSENYTCSDSEESSEKDKLAIPKRLRRSLPPGLLRRVSSTWTTTTSATGLPTLEPAPVRRDRSTSIKLQEAPSSSPDSWNNPVM
4 | – | markedly diminished | M5: Flag-tagged rhPDE3A1 phosphorylation site mutant S292A/293A/312A/438A (protein, UniProt Q14432 1-1141, looked up, variant S292A S293A S312A S438A, Flag tag, Flag-tagged rhPDE3A1 phosphorylation site mutant S292A/293A/312A/438A) cGMP-inhibited 3',5'-cyclic …: MAVPGDAARVRDKPVHSGVSQAPTAGRDCHHRADPASPRDSGCRGCWGDLVLQPLRSSRKLSSALCAGSLSFLLALLVRLVRGEVGCDLEQCKEAAAAEEEEAAPGAEGGVFPGPRGGAPGGGARLSPWLQPSALLFSLLCAFFWMGLYLLRAGVRLPLAVALLAACCGGEALVQIGLGVGEDHLLSLPAAGVVLSCLAAATWLVLRLRLGVLMIALTSAVRTVSLISLERFKVAWRPYLAYLAGVLGILLARYVEQILPQSAEAAPREHLGSQLIAGTKEDIPVFKRRRRAASVVSAEMSGCSSKSHRRTALPCIPREQLMGHSEWDHKRGPRGSQSSGTSITVDIAVMGEAHGLITDLLADPSLPPNVCTSLRAVSNLLSTQLTFQAIHKPRVNPVTSLSENYTCSDSEESSEKDKLAIPKRLRRSLPPGLLRRVASTWTTTTSATGLPTLEPAPVRRDRSTSIKLQEAPSSSPDSWNNPVMMTLTKSRSFTSSYAISAANHVKAKKQSRPGALAKISPLSSPCSSPLQGTPASSLVSKISAVQFPESADTTAKQSLGSHRALTYTQSAPDLSPQILTPPVICSSCGRPYSQGNPADEPLERSGVATRTPSRTDDTAQVTSDYETNNNSDSSDIVQNEDETECLREPLRKASACSTYAPETMMFLDKPILAPEPLVMDNLDSIMEQLNTWNFPIFDLVENIGRKCGRILSQVSYRLFEDMGLFEAFKIPIREFMNYFHALEIGYRDIPYHNRIHATDVLHAVWYLTTQPIPGLSTVINDHGSTSDSDSDSGFTHGHMGYVFSKTYNVTDDKYGCLSGNIPALELMALYVAAAMHDYDHPGRTNAFLVATSAPQAVLYNDRSVLENHHAAAAWNLFMSRPEYNFLINLDHVEFKHFRFLVIEAILATDLKKHFDFVAKFNGKVNDDVGIDWTNENDRLLVCQMCIKLADINGPAKCKELHLQWTDGIVNEFYEQGDEEASLGLPISPFMDRSAPQLANLQESFISHIVGPLCNSYDSAGLMPGKWVEDSDESGDTDDPEEEEEEAPAPNEEETCENNESPKKKTFKRRKIYCQITQHLLQNHKMWKKVIEEEQRLAGIENQSLDQTPQSHSSEQIQAIKEEEEEKGKPRGEEIPTQKPDQ
